Assay [1] has as its target T1, TGFβ1 growth factor (human, UniProt P01137 279-390).
T1 construct: domain: growth factor; also called TGFb1 (soluble form)
Briefly: BLI, OctetRed 384, antigen loaded on biosensor. How it is done:
(§1) The binding affinities of the proTGFβ1-GARP complex-selective antibody candidates to proTGFβ1-GARP complexes were measured by biolayer interferometry on an OctetRed 384 (Fortebio, Menlo Park, Calif.). Strepavidin biosensors (Fortebio, Cat. No. 18-5020) were loaded with biotinylated sGARP-proTGFβ1 complex at 20 μg/ml in sodium acetate buffer, pH 5, washed in the same buffer and transferred to wells containing 10 μg/mL proTGFβ1-GARP complex-selective antibody candidates in the same buffer. The dissociation constant was obtained by non-linear fitting of the responses to a steady state algorithm using Octet software (Table 4). Similar affinities were obtained by kinetic fitting.
(§2) To ascertain binding specificity, 4B1C1 and 4B16B9 were screened as above for binding to TGFβ1, TGFβ2, TGFβ3, proTGFβ1-LTBP1, proTGFβ1-LTBP3 and proTGFβ1-LRRC33. As described above, antibodies were tested at 10 μg/ml and antigens at 20 μg/ml and tested under the following conditions.
A general note: Biolayer interferometry detects binding as a change in optical thickness at a sensor tip.

Assay [2] addresses T2, TGFβ3 growth factor (UniProt P10600 301-412).
T2 construct: domain: growth factor
T2 sequence (looked up): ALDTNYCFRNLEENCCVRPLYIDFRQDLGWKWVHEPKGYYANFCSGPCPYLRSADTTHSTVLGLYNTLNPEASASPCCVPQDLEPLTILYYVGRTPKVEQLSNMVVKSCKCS
Briefly: BLI, OctetRed 384 (FIG. 4). The procedure: as §1, §2
(§3) proTGFβ1-GARP complex-selective antibody candidates were measured by biolayer interferometry on an OctetRed 384 (Fortebio, Menlo Park, Calif.) for selectivity for proTGFβ1-GARP complex over other protein complexes (FIG. 4).

For assay [3], the target named is T3, TGFβ2 growth factor (UniProt P61812 303-414).
T3 construct: domain: growth factor
T3 sequence (looked up): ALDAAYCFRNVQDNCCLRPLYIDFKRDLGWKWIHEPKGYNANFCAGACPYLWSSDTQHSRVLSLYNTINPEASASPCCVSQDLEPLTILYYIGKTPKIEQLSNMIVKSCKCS
The assay can be described thus: BLI, OctetRed 384 (FIG. 4). The procedure:
as §1, §2, §3

For assay [4], the target named is human proTGFβ1 in complex with GARP expressed on transfected HEK293 or Sw480 cells (human, UniProt Q14392 20-662; P01137 30-390). Briefly: cell-based or functional assay.
Assay [5] deals with T4, hGARP-TGFβ1-LAP (human).
T4 construct: not given
The assay can be described thus: biolayer interferometry (OctetRed 384). How it is done:
as §1, §3

Assay [6] has as its target T5, rGARP-proTGFβ1.
T5 construct: not given
The assay can be described thus: biolayer interferometry (OctetRed 384). How it is done: as §1, §3

Assay [7] addresses T1, TGFβ1 growth factor. Briefly: BLI, OctetRed 384 (FIG. 4). How it is done:
as §1, §2, §3

T1 sequence (P01137 279-390 limits assumed): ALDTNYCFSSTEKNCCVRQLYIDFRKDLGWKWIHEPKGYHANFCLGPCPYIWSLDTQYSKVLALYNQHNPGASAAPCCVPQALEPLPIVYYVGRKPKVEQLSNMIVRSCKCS
human proTGFβ1 in complex with GARP expressed on transfected HEK293 or Sw480 cells, sequence (Q14392 20-662, chain 1 of 2): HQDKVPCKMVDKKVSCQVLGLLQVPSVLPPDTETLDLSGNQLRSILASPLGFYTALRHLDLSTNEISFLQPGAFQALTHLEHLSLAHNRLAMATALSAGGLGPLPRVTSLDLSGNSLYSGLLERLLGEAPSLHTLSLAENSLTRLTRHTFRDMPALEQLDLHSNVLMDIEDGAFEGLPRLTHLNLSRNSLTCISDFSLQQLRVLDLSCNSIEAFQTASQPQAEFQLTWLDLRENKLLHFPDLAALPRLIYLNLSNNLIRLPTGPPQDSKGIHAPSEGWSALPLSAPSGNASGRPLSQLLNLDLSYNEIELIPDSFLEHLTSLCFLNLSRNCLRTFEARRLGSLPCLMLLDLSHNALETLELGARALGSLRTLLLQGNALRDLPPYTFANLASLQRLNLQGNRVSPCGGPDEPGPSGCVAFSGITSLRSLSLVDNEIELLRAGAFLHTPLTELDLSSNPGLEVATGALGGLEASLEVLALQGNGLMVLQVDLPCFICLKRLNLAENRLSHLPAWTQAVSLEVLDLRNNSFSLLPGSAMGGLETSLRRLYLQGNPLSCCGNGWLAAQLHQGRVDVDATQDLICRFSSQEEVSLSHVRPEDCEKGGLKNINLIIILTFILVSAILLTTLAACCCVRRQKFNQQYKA
human proTGFβ1 in complex with GARP expressed on transfected HEK293 or Sw480 cells, sequence (P01137 30-390, chain 2 of 2): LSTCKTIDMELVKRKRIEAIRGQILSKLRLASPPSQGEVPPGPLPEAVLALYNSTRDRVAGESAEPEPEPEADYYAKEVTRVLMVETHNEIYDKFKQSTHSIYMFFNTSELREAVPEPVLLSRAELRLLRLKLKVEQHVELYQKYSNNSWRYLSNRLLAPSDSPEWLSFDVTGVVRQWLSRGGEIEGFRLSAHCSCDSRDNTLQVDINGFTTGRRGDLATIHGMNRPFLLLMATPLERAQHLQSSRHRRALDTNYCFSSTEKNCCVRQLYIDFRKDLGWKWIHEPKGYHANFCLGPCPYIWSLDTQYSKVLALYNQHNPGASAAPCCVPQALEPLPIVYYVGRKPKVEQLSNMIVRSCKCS
T4 sequence (Q14392 20-627, chain 1 of 2): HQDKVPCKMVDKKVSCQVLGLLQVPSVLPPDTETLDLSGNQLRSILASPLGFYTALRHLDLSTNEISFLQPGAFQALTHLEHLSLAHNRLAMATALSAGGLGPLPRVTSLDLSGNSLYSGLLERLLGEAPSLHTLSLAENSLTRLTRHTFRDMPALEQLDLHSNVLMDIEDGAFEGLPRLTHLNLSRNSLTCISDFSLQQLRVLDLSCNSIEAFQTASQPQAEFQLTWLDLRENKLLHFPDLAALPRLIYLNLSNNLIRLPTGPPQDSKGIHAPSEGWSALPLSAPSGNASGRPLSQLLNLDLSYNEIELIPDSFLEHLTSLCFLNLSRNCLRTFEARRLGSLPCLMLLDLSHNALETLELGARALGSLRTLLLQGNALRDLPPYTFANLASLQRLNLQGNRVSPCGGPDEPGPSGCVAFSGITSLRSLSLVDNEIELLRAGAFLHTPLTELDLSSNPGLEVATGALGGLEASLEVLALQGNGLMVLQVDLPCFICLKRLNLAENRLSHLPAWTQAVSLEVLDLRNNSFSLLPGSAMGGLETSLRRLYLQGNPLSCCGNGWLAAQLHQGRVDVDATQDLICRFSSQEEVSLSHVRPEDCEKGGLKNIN
T4 sequence (P01137 30-390, chain 2 of 2, further chain): as the sequence (P01137 30-390, chain 2 of 2) above

B1: 4B1C1 (antibody, human IgG4 S228P, kappa, V domains shown)
VH: EVQLVQSGGVVVQPGGSLRLSCAASGFTFDDYTMHWVRQAPGKGLEWVSLISWDGGSTYYADSVKGRFTISRDNSKNSLYLQMNSLRTEDTALYYCAKDADDSTFDIWGQGTMVTVSS
VL: ETTLTQSPATLSVSPGERVTLSCRASQSVSRNLAWYQQKPGQPPKLLIYWASTRESGVPDRFSGSGSGTDFTLTISSLQAEDVAVYYCQQYYSVPYTFGQGTKLEIKR
notes: Fully human, from a phage display scFv; also called 4B1Cl; proTGFβ1-GARP complex-selective antibody candidate
A word on the Kd: it is the concentration at which binding is half-saturated. As to B1, the binding result in assay [1], in assay [2] and in assay [3] was “no binding” in each case. Also, the “IC50 of inhibition of TGFβ1 activation, TMLC reporter cells” value in assay [4] came out at 0.178 nM. The figures for the Kd in assay [5] and in assay [6] were 11.3 nM and 0.187 nM, respectively.

B2: 4B16B9 (antibody, human IgG4 S228P, lambda, V domains shown)
VH: QMQLVQSGAEVKKPGSSVKVSCKASGGTFSSYAISWVRQAPGQGLEWMGGIIPMFGTTNYAQKFQGRVTIIADESTSTAYMELRSLRSDDTAVYYCARDREWEPAYGMDVWGQGTTVTVSS
VL: QSALTQPASVSGSPGQSITISCIGTSSDVGGYNYVSWYQQHPGKAPKLMIYDVSNRPSGVSNRFSGSKSGNTASLTISGLQAEDEAMYYCSAYTVSSTWVFGGGTKVTVLG
notes: Fully human, from a phage display scFv; also called proTGFβ1-GARP complex-selective antibody candidate
For the molecule B2, the binding result in assay [2], in assay [7] and in assay [3] was “no binding” throughout. The “IC50 of inhibition of TGFβ1 activation, TMLC reporter cells” value in assay [4] came out at 1.9 nM. The same molecule showed a Kd in assay [6] of 0.158 nM.

Values taken from patent US20210277100A1 (SCHOLAR ROCK, published 2021).
